Substrate: Nc1ccccc1C(=O)CC(N)C(=O)O
Test: purified protein, by the assay type
Settings: other: human KMO, 200 μM NADPH

B1: human KMO (Homo sapiens) (protein)
chain: MDSSVIQRKKVAVIGGGLVGSLQACFLAKRNFQIDVYEAREDTRVATFTRGRSINLALSHRGRQALKAVGLEDQIVSQGIPMRARMIHSLSGKKSAIPYGTKSQYILSVSRENLNKDLLTAAEKYPNVKMHFNHRLLKCNPEEGMITVLGSDKVPKDVTCDLIVGCDGAYSTVRSHLMKKPRFDYSQQYIPHGYMELTIPPKNGDYAMEPNYLHIWPRNTFMMIALPNMNKSFTCTLFMPFEEFEKLLTSNDVVDFFQKYFPDAIPLIGEKLLVQDFFLLPAQPMISVKCSSFHFKSHCVLLGDAAHAIVPFFGQGMNAGFEDCLVFDELMDKFSNDLSLCLPVFSRLRIPDDHAISDLSMYNYIEMRAHVNSSWFIFQKNMERFLHAIMPSTFIPLYTMVTFSRIRYHEAVQRWHWQKKVINKGLFFLGSLIAISSTYLLIHYMSPRSFLRLRRPWNWIAHFRNTTCFPAKAVDSLEQISNLISR
For B1, the Km was 2 µM and the kcat was 0.24 s⁻¹.
